Reference: PMC4330371, “Interaction between the RNA-dependent ATPase and poly(A) polymerase subunits of the TRAMP complex is mediated by short peptides and important for snoRNA processing” (Nucleic Acids Research, 2015)
“Also recorded” adds a separate entry of the source. No end group written: not given here.

What was measured:
Assay type in all cases: cell-based, Saccharomyces cerevisiae
Mtr4 = assay: Yeast two-hybrid interaction with Mtr4; design: key to Y2H interaction with Mtr4: +: growth on both SC-ADE and SC-HIS supplemented with 10 mM 3-AT; -: a failure to interact; conditions: for yeast two-hybrid interaction with Mtr4: full-length Mtr4, growth on SC-ADE and SC-HIS; for Y2H interaction with Mtr4: Trf5 fragments, growth on SC-ADE and SC-HIS supplemented with 10 mM 3-AT
Excerpt: (§1) The yeast two-hybrid assays used plasmids pOBD2 and pOAD that were previously described ([28]). The yeast two-hybrid plasmids for Mtr4 (pAV745), Mtr4-archless (pAV746) and Trf5–53–199 (pAV744) have been previously described as have the positive controls that contain MEC3 and RAD17 ([29]). Yeast two-hybrid plasmids with Trf5 residues 68–199 (pAV759), 83–199 (pAV760), 98–199 (pAV761), 118–199 (pAV766), 53–184 (pAV762), 53–169 (pAV763), 53–154 (pAV764), 53–139 (pAV767) and 53–124 (pAV768) were generated similarly to pAV744. Briefly, these regions of TRF5 were PCR amplified with primers that contain PvuII and PstI sites, digested with those restriction enzymes and cloned into pOAD. The yeast two-hybrid plasmids with Trf5 residues 98–117 were generated by cloning oligonucleotides for this region into the PvuII and PstI sites of pOAD.
Strain trf4Δ/trf5Δ/pRS416-TRF4 has been previously described (MATa, leu2-Δ0, ura3-Δ0, his3-Δ1, met15-Δ0, trf4Δ::NAT, trf5Δ::KAN; [33]). The TRF5 and trf5-Δ98–117 plasmids were introduced by transformation and selection on media lacking leucine. Transformants were then plated on media containing 5FOA to select for cells that had lost the pRS416-TRF4 plasmid. The rrp44-exo^−, rrp44-endo^− and rrp6Δ::KAN strains are isogenic to this strain and have been previously described ([31]). Yeast two-hybrid strains PJ69–4α and PJ69–4a have been previously described ([28],[34]). They are MATα and MATa, respectively, and in addition are both trp1–901, leu2–3,112, ura3–52, his3–200, gal4Δ, gal80Δ, LYS2::GAL1-HIS3, GAL2-ADE2, met2::GAL7-lacZ.
Yeast two-hybrid assays were carried out as previously described ([29]). Briefly, the MTR4 TRP1 plasmids were transformed into PJ69–4α and the TRF5 LEU2 plasmids were transformed into PJ69–4a. Transformants were crossed to each other and diploids that contain both plasmids were selected on SC-TRP-LEU. These diploids were then serially diluted and spotted on SC-TRP-LEU, SC-ADE and SC-HIS media.

Mtr4-archless = assay: Yeast two-hybrid interaction with Mtr4-archless; conditions: growth on SC-ADE and SC-HIS
Excerpt: as §1
(§2) Strain trf4Δ/trf5Δ/pRS416-TRF4 has been previously described (MATa, leu2-Δ0, ura3-Δ0, his3-Δ1, met15-Δ0, trf4Δ::NAT, trf5Δ::KAN; [33]). The TRF5 and trf5-Δ98–117 plasmids were introduced by transformation and selection on media lacking leucine. Transformants were then plated on media containing 5FOA to select for cells that had lost the pRS416-TRF4 plasmid. The rrp44-exo^−, rrp44-endo^− and rrp6Δ::KAN strains are isogenic to this strain and have been previously described ([31]). […]

endogenous Mtr4 = assay: Co-purification of endogenous Mtr4 with TAP-tagged Trf5; conditions: TAP-tagged Trf5 proteins expressed from endogenous promoter, IgG Sepharose, 2 h at 4°C, IP50/IP150 buffer pH 7.5, western blot with anti-Mtr4
Excerpt: The Trf5-Δ98–117-TAP and Trf5-TAP plasmids are low copy (CEN) plasmids derived from pRS415 ([30]) with the endogenous TRF5 promoter driving expression of Trf5 or Trf5-Δ98–117. The trf5-Δ98–117-TAP plasmid (pAV854) was generated by ligation of three DNA fragments. The first fragment contained the promoter and 5′ end of TRF5 and was generated by PCR with oligonucleotides oAV906 ([…]) and oAV870 ([…]) and digestion with NotI and SpeI. The second fragment contained the 3′ end of TRF5 and was generated by PCR with oligonucleotides oAV871 ([…]) and oAV869 ([…]) and digestion with SpeI and PstI. The third fragment was pAV476 ([31]) digested with NotI and PstI. The TRF5-TAP plasmid (pAV885) was subsequently generated by replacing an XbaI to BstAPI fragment that contained the internal deletion with the corresponding wild-type sequence.
as §2

Molecule | Y2H interaction with Mtr4 (Mtr4) | also measured
Trf5 98–117: yeast two-hybrid construct with Trf5 residues 98–117, conserved 20 amino acid peptide (NNSLEDNQDFIAFSDSSEDE; also: fused to Gal4 activation domain, end not given here) |  | yeast two-hybrid interaction with Mtr4 (Mtr4): interacts with Mtr4; yeast two-hybrid interaction with Mtr4 (Mtr4; listed as amino acids 98–117 of Trf5): sufficient for interaction with Mtr4; also recorded: indeed interacted with Mtr4; yeast two-hybrid interaction with Mtr4-archless (Mtr4-archless): interacts both with full-length and archless Mtr4
Trf5 fragment 53-124: yeast two-hybrid construct of Trf5 residues 53–124 (protein, UniProt P48561 53-124, looked up, fragment, yeast two-hybrid fusion) AIDVEDDDTFGNLVLMENDKSDVDIPVIEEVTSSEDEQRAESSKRNNSLEDNQDFIAFSDSSEDETEQIKED | + | 
Trf5 fragment 98-199: yeast two-hybrid construct of Trf5 residues 98–199 (protein, UniProt P48561 98-199, looked up, fragment, yeast two-hybrid fusion) NNSLEDNQDFIAFSDSSEDETEQIKEDDDERSSFLLTDEHEVSKLTSQQSLNTESACNVEYPWIRNHCHSKQRRIADWLTSEIKDFVHYISPSKNEIKCRNR | + | 
Trf5 fragment 53-199: yeast two-hybrid construct of Trf5 residues 53–199 (protein, left off: Gal4 activation domain (from the vector pOAD), end not stated, kept) AIDVEDDDTFGNLVLMENDKSDVDIPVIEEVTSSEDEQRAESSKRNNSLEDNQDFIAFSDSSEDETEQIKEDDDERSSFLLTDEHEVSKLTSQQSLNTESACNVEYPWIRNHCHSKQRRIADWLTSEIKDFVHYISPSKNEIKCRNR | + | 
Trf5 fragment 53-154: yeast two-hybrid construct of Trf5 residues 53–154 (protein, UniProt P48561 53-154, looked up, fragment, yeast two-hybrid fusion) AIDVEDDDTFGNLVLMENDKSDVDIPVIEEVTSSEDEQRAESSKRNNSLEDNQDFIAFSDSSEDETEQIKEDDDERSSFLLTDEHEVSKLTSQQSLNTESAC | + | 
Trf5 fragment 53-184: yeast two-hybrid construct of Trf5 residues 53–184 (protein, UniProt P48561 53-184, looked up, fragment, yeast two-hybrid fusion) AIDVEDDDTFGNLVLMENDKSDVDIPVIEEVTSSEDEQRAESSKRNNSLEDNQDFIAFSDSSEDETEQIKEDDDERSSFLLTDEHEVSKLTSQQSLNTESACNVEYPWIRNHCHSKQRRIADWLTSEIKDFV | + | 
Trf5 fragment 68-199: yeast two-hybrid construct of Trf5 residues 68–199 (protein, UniProt P48561 68-199, looked up, fragment, yeast two-hybrid fusion) MENDKSDVDIPVIEEVTSSEDEQRAESSKRNNSLEDNQDFIAFSDSSEDETEQIKEDDDERSSFLLTDEHEVSKLTSQQSLNTESACNVEYPWIRNHCHSKQRRIADWLTSEIKDFVHYISPSKNEIKCRNR | + | 
full-length TAP-tagged Trf5: TAP-tagged full-length Trf5 expressed from the endogenous TRF5 promoter (protein, left off: TAP, end not stated, kept, TAP-tagged full-length Trf5 expressed from the endogenous TRF5 promoter) MTRLKAKYSPTKGKRKEDKHTKRMRKSSFTRTQKMLEVFNDNRSHFNKYESLAIDVEDDDTFGNLVLMENDKSDVDIPVIEEVTSSEDEQRAESSKRNNSLEDNQDFIAFSDSSEDETEQIKEDDDERSSFLLTDEHEVSKLTSQQSLNTESACNVEYPWIRNHCHSKQRRIADWLTSEIKDFVHYISPSKNEIKCRNRTIDKLRRAVKELWSDADLHVFGSFATDLYLPGSDIDCVVNSRNRDKEDRNYIYELARHLKNKGLAIRMEVIVKTRVPIIKFIEPQSQLHIDVSFERTNGLEAAKLIREWLRDSPGLRELVLIIKQFLHSRRLNNVHTGGLGGFTVICLVYSFLNMHPRIKSNDIDVLDNLGVLLIDFFELYGKNFGYDDVAISISDGYASYIPKSCWRTLEPSRSKFSLAIQDPGDPNNNISRGSFNMKDIKKAFAGAFELLVNKCWELNSATFKDRVGKSILGNVIKYRGQKRDFNDERDLVQNKAIIENERYHKRRTRIVQEDLFINDTEDLPVEEIYKLDEPAKKKQKAKKDKREGEIKKSAIPSPPPDFGVSRSKLKRKVKKTDQGSLLHQNNLSIDDLMGLSENDQESDQDQKGRDTPSGQDEKSPLETKTVDAQTRRDYWLSKGQAL |  | co-purification of endogenous Mtr4 (words) (endogenous Mtr4): results in co-purification of endogenous Mtr4; co-purification of endogenous Mtr4 (words) (endogenous Mtr4; listed as full-length Trf5): readily detectable
Trf5 fragment 118-199: yeast two-hybrid construct of Trf5 residues 118–199 (protein, UniProt P48561 118-199, looked up, fragment, yeast two-hybrid fusion) TEQIKEDDDERSSFLLTDEHEVSKLTSQQSLNTESACNVEYPWIRNHCHSKQRRIADWLTSEIKDFVHYISPSKNEIKCRNR | - | 
Trf5 fragment 53-139: yeast two-hybrid construct of Trf5 residues 53–139 (protein, UniProt P48561 53-139, looked up, fragment, yeast two-hybrid fusion) AIDVEDDDTFGNLVLMENDKSDVDIPVIEEVTSSEDEQRAESSKRNNSLEDNQDFIAFSDSSEDETEQIKEDDDERSSFLLTDEHEV | + | 
Trf5 fragment 83-199: yeast two-hybrid construct of Trf5 residues 83–199 (protein, UniProt P48561 83-199, looked up, fragment, yeast two-hybrid fusion) VTSSEDEQRAESSKRNNSLEDNQDFIAFSDSSEDETEQIKEDDDERSSFLLTDEHEVSKLTSQQSLNTESACNVEYPWIRNHCHSKQRRIADWLTSEIKDFVHYISPSKNEIKCRNR | + | 
Trf5 fragment 53-169: yeast two-hybrid construct of Trf5 residues 53–169 (protein, UniProt P48561 53-169, looked up, fragment, yeast two-hybrid fusion) AIDVEDDDTFGNLVLMENDKSDVDIPVIEEVTSSEDEQRAESSKRNNSLEDNQDFIAFSDSSEDETEQIKEDDDERSSFLLTDEHEVSKLTSQQSLNTESACNVEYPWIRNHCHSKQ | + | 
